Test results published in article PMC4736791 (Biophysics, 2015).

Target: the molecule itself
Experiment: SAXS; nucleotide-free KaiC monomer (1.69 mg/ml) mixed with P-buffer containing ATP to 1 mM final; curve taken at 30°C 6 min after addition of ATP; monomer to hexamer

B1: KaiC (natural protein, UniProt Q79PF4 1-519, looked up)
chain: MTSAEMTSPNNNSEHQAIAKMRTMIEGFDDISHGGLPIGRSTLVSGTSGTGKTLFSIQFLYNGIIEFDEPGVFVTFEETPQDIIKNARSFGWDLAKLVDEGKLFILDASPDPEGQEVVGGFDLSALIERINYAIQKYRARRVSIDSVTSVFQQYDASSVVRRELFRLVARLKQIGATTVMTTERIEEYGPIARYGVEEFVSDNVVILRNVLEGERRRRTLEILKLRGTSHMKGEYPFTITDHGINIFPLGAMRLTQRSSNVRVSSGVVRLDEMCGGGFFKDSIILATGATGTGKTLLVSRFVENACANKERAILFAYEESRAQLLRNAYSWGMDFEEMERQNLLKIVCAYPESAGLEDHLQIIKSEINDFKPARIAIDSLSALARGVSNNAFRQFVIGVTGYAKQEEITGLFTNTSDQFMGAHSITDSHISTITDTIILLQYVEIRGEMSRAINVFKMRGSWHDKAIREFMISDKGPDIKDSFRNFERIISGSPTRITVDEKSELSRIVRGVQEKGPES
With B1 the “stoichiometry N” value was 6.05 ± 0.08 fold.
